Measured values published in patent US20020147129A1.
Where no end group is shown, it is not given here.

What was measured:
[1] = biological target: AT4 receptor of sheep central nervous system (sheep); assay: competition for 125I-LVV-haemorphin-7 binding, sheep cerebellar cortical membranes
[2] = biological target: embryonic chicken AT4 receptor (chicken); assay: competition for [125I]Ang IV binding, E13 chicken chorioallantoic membranes
[3] = biological target: AT4 receptor of sheep central nervous system (sheep); assay: competition for [125I]Ang IV binding, sheep cerebellar cortical membranes
[4] = biological target: embryonic chicken Ang II receptor (chicken); assay: competition for 125I[Sar1Ile8]Ang II binding, E13 chicken chorioallantoic membranes
Sequence of embryonic chicken Ang II receptor (chicken) (P79785 whole entry): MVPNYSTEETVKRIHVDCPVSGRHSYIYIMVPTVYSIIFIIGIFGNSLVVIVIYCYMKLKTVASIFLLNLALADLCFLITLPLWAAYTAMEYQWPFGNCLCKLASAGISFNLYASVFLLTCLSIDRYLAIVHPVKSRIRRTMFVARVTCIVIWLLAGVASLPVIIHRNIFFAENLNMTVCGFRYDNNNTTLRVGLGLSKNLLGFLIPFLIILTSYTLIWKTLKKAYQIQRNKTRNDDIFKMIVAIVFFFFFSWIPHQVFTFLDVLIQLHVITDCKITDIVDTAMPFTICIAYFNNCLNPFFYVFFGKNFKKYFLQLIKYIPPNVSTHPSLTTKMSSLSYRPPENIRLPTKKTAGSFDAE

[5] = biological target: embryonic chicken AT4 receptor (chicken); assay: cell-based or functional assay
[6] = biological target: AT4 receptor of bovine adrenal membranes (bovine); assay: competition for 125I-Ang IV binding, bovine adrenal membranes
[7] = biological target: angiotensin AT4 receptor of Macaca fascicularis brain (Macaca fascicularis); assay: competition for [125I]Ang IV binding, monkey prefrontal cortical sections

Sequence of embryonic chicken AT4 receptor (chicken) (F1NNE7 entry or part of it): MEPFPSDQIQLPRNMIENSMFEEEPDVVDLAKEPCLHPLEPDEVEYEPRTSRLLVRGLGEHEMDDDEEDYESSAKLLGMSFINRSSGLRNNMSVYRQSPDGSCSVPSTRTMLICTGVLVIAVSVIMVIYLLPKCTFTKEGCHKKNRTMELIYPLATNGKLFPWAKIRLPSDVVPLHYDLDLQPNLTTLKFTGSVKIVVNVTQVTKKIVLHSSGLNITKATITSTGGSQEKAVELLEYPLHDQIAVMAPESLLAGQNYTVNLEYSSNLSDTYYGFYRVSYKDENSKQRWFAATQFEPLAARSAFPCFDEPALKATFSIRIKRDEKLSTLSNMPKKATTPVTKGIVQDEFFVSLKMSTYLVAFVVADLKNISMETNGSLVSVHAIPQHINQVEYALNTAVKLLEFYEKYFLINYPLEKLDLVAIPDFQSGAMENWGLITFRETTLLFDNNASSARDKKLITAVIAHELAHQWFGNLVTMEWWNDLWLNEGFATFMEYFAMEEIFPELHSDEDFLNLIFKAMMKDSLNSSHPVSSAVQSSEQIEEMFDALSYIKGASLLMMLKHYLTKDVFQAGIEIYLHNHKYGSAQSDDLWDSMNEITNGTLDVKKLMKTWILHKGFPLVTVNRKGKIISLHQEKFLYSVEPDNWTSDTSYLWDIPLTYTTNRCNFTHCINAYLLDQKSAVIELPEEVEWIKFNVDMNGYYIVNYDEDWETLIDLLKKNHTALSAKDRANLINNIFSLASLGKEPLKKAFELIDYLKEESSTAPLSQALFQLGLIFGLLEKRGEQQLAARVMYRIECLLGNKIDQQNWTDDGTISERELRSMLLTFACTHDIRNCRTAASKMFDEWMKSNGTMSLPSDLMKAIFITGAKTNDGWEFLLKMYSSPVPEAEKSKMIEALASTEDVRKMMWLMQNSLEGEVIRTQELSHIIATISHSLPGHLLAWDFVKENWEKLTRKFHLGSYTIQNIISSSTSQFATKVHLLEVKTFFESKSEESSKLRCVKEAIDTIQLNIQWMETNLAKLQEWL

B1: angiotensin IV (peptide)
peptide: VYIHPF
modifications: also: same id also used for [125I]Ang IV tracer, radioiodinated with chloramine T
[1]
  IC50: 1 nM
[2]
  IC50: 18 nM
[3]
  IC50: 1.13 nM
[4]
  IC50: 50000 nM
[5]
  inhibition of neurite outgrowth from E11 chicken sympathetic neurons: half maximal inhibition: 100 pM
  inhibition of neurite outgrowth from E11 chicken sympathetic neurons: maximal effect: 1 nM
  inhibition of neurite outgrowth from E11 chicken sympathetic neurons: threshold: 10 pM
[6]
  affinity in competing for ^125I-Ang IV binding: 1 to 5 nM
[7]
  IC50: 5 nM

## LVVYPWTQRF [LVV-haemorphin-7]
[1]
  IC50: 5.6 nM
[3]
  IC50: 2 nM
[6]
  affinity in competing for ^125I-Ang IV binding: 1 to 5 nM
